Patent US20120301404A1

Experiments:
[1] = target: PIF receptor (human muscle cell line Hs94MU membranes) (human); assay: Scatchard analysis of [35S]PIF binding to Hs94MU human muscle cell membranes, second site
[2] = target: PIF receptor (mouse; C2C12 membranes and mouse tissue plasma membranes) (mouse (C2C12 myotubes)); assay: Scatchard analysis of [35S]PIF binding to mouse liver plasma membranes, first site
[3] = target: PIF receptor (mouse; C2C12 membranes and mouse tissue plasma membranes) (mouse (C2C12 myotubes)); assay: cell-based or functional assay
[4] = target: PIF receptor (pig sarcolemma membranes) (pig); assay: Scatchard analysis of [35S]PIF binding to pig sarcolemma membranes, second site
[5] = target: PIF receptor (pig sarcolemma membranes) (pig); assay: Scatchard analysis of [35S]PIF binding to pig sarcolemma membranes, first site
[6] = target: PIF receptor (human muscle cell line Hs94MU membranes) (human); assay: Scatchard analysis of [35S]PIF binding to Hs94MU human muscle cell membranes, first site
[7] = target: PIF receptor (mouse; C2C12 membranes and mouse tissue plasma membranes) (mouse (C2C12 myotubes)); assay: Scatchard analysis of [35S]PIF binding to C2C12 membranes, second site (column headed Kaff2 x 10^-9 M)
[8] = target: PIF receptor (mouse; C2C12 membranes and mouse tissue plasma membranes) (mouse (C2C12 myotubes)); assay: Scatchard analysis of [35S]PIF binding to mouse heart plasma membranes, first site
[9] = target: PIF receptor (mouse; C2C12 membranes and mouse tissue plasma membranes) (mouse (C2C12 myotubes)); assay: comparison of the affinity of PIF for muscle cell binding sites with its affinity for the MAC16 monoclonal antibody
[10] = target: PIF receptor (mouse; C2C12 membranes and mouse tissue plasma membranes) (mouse (C2C12 myotubes)); assay: Scatchard analysis of [35S]PIF binding to C2C12 membranes, first site (column headed Kaff x 10^-10 M; text calls it Kd)
[11] = target: PIF receptor (mouse; C2C12 membranes and mouse tissue plasma membranes) (mouse (C2C12 myotubes)); assay: Scatchard analysis of [35S]PIF binding to mouse heart plasma membranes, second site
[12] = target: PIF receptor (mouse; C2C12 membranes and mouse tissue plasma membranes) (mouse (C2C12 myotubes)); assay: Scatchard analysis of [35S]PIF binding to mouse gastrocnemius muscle sarcolemma membranes, first site
[13] = target: PIF receptor (mouse; C2C12 membranes and mouse tissue plasma membranes) (mouse (C2C12 myotubes)); assay: Scatchard analysis of [35S]PIF binding to mouse liver plasma membranes, second site
[14] = target: PIF receptor (mouse; C2C12 membranes and mouse tissue plasma membranes) (mouse (C2C12 myotubes)); assay: Scatchard analysis of [35S]PIF binding to mouse gastrocnemius muscle sarcolemma membranes, second site
[15] = target: PIF receptor (mouse; C2C12 membranes and mouse tissue plasma membranes) (mouse (C2C12 myotubes)); assay: Scatchard analysis of [35S]PIF binding to mouse soleus muscle plasma membranes, second site
[16] = target: PIF receptor (mouse; C2C12 membranes and mouse tissue plasma membranes) (mouse (C2C12 myotubes)); assay: Scatchard analysis of [35S]PIF binding to mouse soleus muscle plasma membranes, first site
[17] = target: Proteolysis Inducing Factor (PIF) (mouse (MAC16 cells)); assay: cell-based or functional assay

| Kd [1] | Kd [2] | increased rate of protein degradation in C2C12 myoblasts over 24 and 48 h, effective concentrations [3] | rate of protein degradation (release of L-[2,6-3H]phenylalanine) in C2C12 myoblasts, concentration of maximal effect at 6 h [3] | Kd [4] | Kd [5] | Kd [6] | Kd [7] | Kd [8] | fold greater affinity than binding to a monoclonal antibody [9] | Kd [10] | Kd [11] | Kd [12] | Kd [13] | Kd [14] | Kd [15] | Kd [16] | PIF-induced increase in chymotrypsin-like enzyme activity [17] | PIF-induced protein degradation in murine myotubes [17] | Molecule |
| --- | --- | --- | --- | --- | --- | --- | --- | --- | --- | --- | --- | --- | --- | --- | --- | --- | --- | --- | --- |
| 1.7 nM | 0.69 nM | 0.14 to 1.4 nM | 0.98 to 1.4 nM | 8.2 nM | 0.47 nM | 0.11 nM | 1.2 nM | 0.3 nM | 10 to 100 fold | 0.14 nM | 2.3 nM | 0.52 nM | 0.2 nM | 0.1 nM | 0.12 nM | 0.01 nM | – | – | Proteolysis Inducing Factor (PIF) (ligand) |
| – | – | – | – | – | – | – | – | – | – | – | – | – | – | – | – | – | 10 µM | 10 µM | DINGGGATLPQPLYQTAAVLTAGFA [N-terminal synthetic peptide of the PIF receptor (peptide of SEQ ID No. 1)] |
